Publication PMC10907249

Biological target: HLA-A*02:01 refolded with the photocleavable peptide photoKV9, UV-exposed (A*02/photoKV9)
Test: fluorescence polarisation

Work on “US11 peptide S28V_WT (amino acids 17 to 44) (from UniProt P09727 17-44)” yielded an IC50 of 3.83 µM.
